In patent US20150010586A1 (ACADEMISCH ZIEKENHUIS LEIDEN H O D N LUMC, published 2015) one finds IC50 data, which are given here for six molecules.

What all share (assay): cellular competition assay vs FL-labelled reference peptide on B cells; affinity category (high/good IC50<5 uM, intermediate 5-15 uM, low >15-50 uM)
The target of one assay is T1, HLA-A*0301 (human).
T1 construct: whole, on cells; Class I molecule on intact B cells (EKR); also called A3

The target in the next assay is T2, HLA-A*0101 (human).
T2 construct: whole, on cells; also called A1

The target of the next assay is T3, HLA-A*1101 (human).
T3 construct: whole, on cells; Class I molecule on intact B cells (BVR)

As for GGSRAHSSHLK (also called A3 (360-370)) [p53 360-370 GGSRAHSSHLK], the half-maximal inhibitory concentration (IC50) (usually the concentration needed to halve the response being measured) in the assay with HLA-A*0301 was 5 to 15 µM. As for YLDDRNTFRH (also called A1 (205-214)) [p53 205-214 YLDDRNTFRH], the IC50 with HLA-A*0101 lay within 5 to 15 µM.

With GQSTSRHKK (also called A11 (374-382)) [p53 374-382 GQSTSRHKK], the IC50 in the assay with HLA-A*1101 lay within 5 to 15 µM.

In turn, CTTIHYNY (also called A1 (229-236)) [p53 229-236 CTTIHYNY] registered an IC50 with HLA-A*0101 of 5 to 15 µM. The molecule RVRAMAIY (also called A3 (156-163)) [p53 156-163 RVRAMAIY] yielded an IC50 with HLA-A*0301 of 5 to 15 µM. As for GTAKSVTCTY (also called A1 (117-126); A3 (117-126)) [p53 117-126 GTAKSVTCTY], the IC50 in the assay with HLA-A*0101 and in the assay with HLA-A*0301 was 5 to 15 µM throughout.
